Data reported in patent publication US20030118612A1 (MAXYGEN, published 2003).
Numbering of substitutions follows the chain as printed. Numbers in names are those of the source.

B1: G-CSF variant K16/34/40R S66K conjugated to SPA-PEG 5000 (ligand)
chain: TPLGPASSLPQSFLLRCLEQVRKIQGDGAALQERLCATYRLCHPEELVLLGHSLGIPWAPLSSCPKQALQLAGCLSQLHSGLFLYQGLLQALEGISPELGPTLDTLQLDVADFATTIWQQMEELGMAPALQPTQGAMPAFASAFQRRAGGVLVASHLQSFLEVSYRVLRHLAQP
modifications: SPA-PEG 5000 conjugated to the available PEGylation sites
B2: G-CSF variant K16/34/40R Q77, non-conjugated (ligand)
chain: B1 chain with K66S, Q77K
B3: G-CSF variant K16/34/40R D104K, non-conjugated (ligand)
chain: B1 chain with K66S, D104K
B4: G-CSF variant K16/34/40R Q67K, non-conjugated (ligand)
chain: B1 chain with K66S, Q67K
B5: G-CSF variant K16/34/40R S76 conjugated to SPA-PEG 5000 (ligand)
chain: B1 chain with K66S, S76K
modifications: SPA-PEG 5000 conjugated to the available PEGylation sites
B6: G-CSF variant 16R, non-conjugated (ligand)
chain: B1 chain with R34K, R40K, K66S
B7: G-CSF variant K16/34/40R T105K, non-conjugated (ligand)
chain: B1 chain with K66S, T105K
B8: G-CSF variant K16/34/40R Q90K conjugated to SPA-PEG 5000 (ligand)
chain: B1 chain with K66S, Q90K
modifications: SPA-PEG 5000 conjugated to the available PEGylation sites
B9: G-CSF variant K16/34/40R S80K conjugated to SPA-PEG 5000 (ligand)
chain: B1 chain with K66S, S80K
modifications: SPA-PEG 5000 conjugated to the available PEGylation sites
B10: G-CSF variant K16/34/40R Q70K conjugated to SPA-PEG 5000 (ligand)
chain: B1 chain with K66S, Q70K
modifications: SPA-PEG 5000 conjugated to the available PEGylation sites
B11: G-CSF variant K16/34/40R T105K conjugated to SPA-PEG 5000 (ligand)
chain: B1 chain with K66S, T105K
modifications: SPA-PEG 5000 conjugated to the available PEGylation sites
B12: G-CSF variant K16/34/40R D104K conjugated to SPA-PEG 5000 (ligand)
chain: B1 chain with K66S, D104K
modifications: SPA-PEG 5000 conjugated to the available PEGylation sites
B13: G-CSF variant K16/34/40R S80K, non-conjugated (ligand)
chain: B1 chain with K66S, S80K
B14: G-CSF variant K16/34/40R S76, non-conjugated (ligand)
chain: B1 chain with K66S, S76K
B15: G-CSF variant K16/34/40R Q77 conjugated to SPA-PEG 5000 (ligand)
chain: B1 chain with K66S, Q77K
modifications: SPA-PEG 5000 conjugated to the available PEGylation sites
B16: G-CSF variant 16R conjugated to SPA-PEG 5000 (ligand)
chain: B1 chain with R34K, R40K, K66S
modifications: SPA-PEG 5000 conjugated to the available PEGylation sites
B17: G-CSF variant K16/34/40R Q70K, non-conjugated (ligand)
chain: B1 chain with K66S, Q70K
B18: G-CSF variant K16/34/40R Q67K conjugated to SPA-PEG 5000 (ligand)
chain: B1 chain with K66S, Q67K
modifications: SPA-PEG 5000 conjugated to the available PEGylation sites
B19: G-CSF variant K16/34/40R T133K, non-conjugated (ligand)
chain: B1 chain with K66S, T133K
B20: G-CSF variant K16/34/40R Q120K, non-conjugated (ligand)
chain: B1 chain with K66S, Q120K
B21: G-CSF variant K16/34/40R Q90K, non-conjugated (ligand)
chain: B1 chain with K66S, Q90K
B22: G-CSF variant K16/34/40R Q120K conjugated to SPA-PEG 5000 (ligand)
chain: B1 chain with K66S, Q120K
modifications: SPA-PEG 5000 conjugated to the available PEGylation sites

Target: T1, human G-CSF receptor (human, UniProt Q99062 25-836)
T1 sequence (looked up): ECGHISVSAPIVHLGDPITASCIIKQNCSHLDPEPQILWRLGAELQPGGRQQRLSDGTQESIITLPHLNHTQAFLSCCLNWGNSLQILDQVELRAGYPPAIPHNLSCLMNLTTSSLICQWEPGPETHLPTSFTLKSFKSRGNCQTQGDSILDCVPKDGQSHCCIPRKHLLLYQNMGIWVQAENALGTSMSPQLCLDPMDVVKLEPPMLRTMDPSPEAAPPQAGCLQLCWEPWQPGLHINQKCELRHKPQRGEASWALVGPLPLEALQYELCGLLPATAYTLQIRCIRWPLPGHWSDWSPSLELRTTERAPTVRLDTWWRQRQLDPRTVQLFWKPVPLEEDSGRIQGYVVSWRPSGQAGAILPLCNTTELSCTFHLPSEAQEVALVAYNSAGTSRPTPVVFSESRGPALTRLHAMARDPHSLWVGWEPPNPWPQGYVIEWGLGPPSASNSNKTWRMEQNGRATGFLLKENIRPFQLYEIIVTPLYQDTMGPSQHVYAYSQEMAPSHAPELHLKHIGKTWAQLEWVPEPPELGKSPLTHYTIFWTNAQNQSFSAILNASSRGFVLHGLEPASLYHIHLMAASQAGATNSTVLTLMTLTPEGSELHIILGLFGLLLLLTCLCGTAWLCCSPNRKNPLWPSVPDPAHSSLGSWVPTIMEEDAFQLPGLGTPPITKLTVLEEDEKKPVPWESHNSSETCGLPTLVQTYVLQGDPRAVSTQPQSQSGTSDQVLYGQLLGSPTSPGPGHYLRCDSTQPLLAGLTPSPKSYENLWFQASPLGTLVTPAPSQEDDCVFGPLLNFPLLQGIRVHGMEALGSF
Test: cell-based or functional assay

| Binder | EC50 (% of hG-CSF) conjugated to SPA-PEG 5000 | EC50 (% of hG-CSF) non-conjugated |
| --- | --- | --- |
| B1 | 2 % of hG-CSF |  |
| B2 |  | 1 % of hG-CSF |
| B3 |  | 10 % of hG-CSF |
| B4 |  | 10 % of hG-CSF |
| B5 | 20 % of hG-CSF |  |
| B6 |  | 100 % of hG-CSF |
| B7 |  | 30 % of hG-CSF |
| B8 | 20 % of hG-CSF |  |
| B9 | 0.2 % of hG-CSF |  |
| B10 | 20 % of hG-CSF |  |
| B11 | 10 % of hG-CSF |  |
| B12 | 0.9 % of hG-CSF |  |
| B13 |  | 10 % of hG-CSF |
| B14 |  | 50 % of hG-CSF |
| B15 | 0 % of hG-CSF |  |
| B16 | 1 % of hG-CSF |  |
| B17 |  | 30 % of hG-CSF |
| B18 | 0.2 % of hG-CSF |  |
| B19 |  | 30 % of hG-CSF |
| B20 |  | 30 % of hG-CSF |
| B21 |  | 30 % of hG-CSF |
| B22 | 20 % of hG-CSF |  |
